Key:
xylose isomerase [1] = experiment: Heterologous xylose isomerase expression in yeast (active yes/no); type: cell-based, Saccharomyces cerevisiae; details: xylose isomerase of the donor organism expressed in engineered yeast (S. cerevisiae)
xylose isomerase [2] = experiment: In vitro xylose isomerase activity assay (sorbitol dehydrogenase/NADH coupled, A340; Km, specific activity, Ki for xylitol); type: biochemical, Saccharomyces cerevisiae
Method: About 20 μg of soluble whole cell extract was incubated in the presence of 100 mM Tris, pH 7.5, 10 mM MgCl2, 0.15 mM NADH (Sigma, St. Louis, Mo.), and about 2 U sorbitol dehydrogenase (Roche) at about 30° C. […] A Beckman DU-800 was utilized with an Enzyme Mechanism software package (Beckman Coulter, Inc.), and the change in the A340 was monitored for 2-3 minutes.
Approximately 20 μg of soluble whole cell extract from each transformed cell line, prepared using Y-PER plus reagent as described above, was incubated in a solution containing about 100 mM Tris, pH 7.5, 10 mM MgCl ? 2, 0.15 mM NADH (Sigma, St. Louis, Mo.), and 2 U Sorbitol Dehydrogenase (SDH) (Roche, Indianapolis, Ind.) at about 30° C. […] A Beckman DU-800 spectrophotometer was utilized with an Enzyme Mechanism software package (Beckman Coulter, Inc, Brea, Calif.), and the change in the A340 was monitored for 2-3 minutes.
Approximately 20 μg of soluble whole cell extract from each transformed cell line was prepared using Y-PER plus reagent as described above was incubated in a solution containing about 100 mM Tris, pH 7.5, 10 mM MgCl2, 0.15 mM NADH (Sigma, St. Louis, Mo.), and 2 U sorbitol dehydrogenase (SDH) (Roche, Indianapolis, Ind.) at about 30° C. […] A Beckman DU-800 spectrophotometer was utilized with an Enzyme Mechanism software package (Beckman Coulter, Inc, Brea, Calif.), and the change in the A340 was monitored for 2-3 minutes.
Approximately 20 μg of soluble whole cell extract from each transformed cell line was prepared using Y-PER plus reagent as described above was incubated in a solution containing about 100 mM Tris, pH 7.5, 10 mM MgCl ? .2, 0.15 mM NADH (Sigma, St. Louis, Mo.), and 2 U Sorbitol Dehydrogenase (SDH) (Roche, Indianapolis, Ind.) at about 30° C. […] A Beckman DU-800 spectrophotometer was utilized with an Enzyme Mechanism software package (Beckman Coulter, Inc, Brea, Calif.), and the change in the A340 was monitored for 2-3 minutes.
The Clostridiales enzyme was further characterized at 1974 μg to confirm the presence of activity.

[3] = test system: 2-keto-3-deoxygluconate-6-phosphate aldolase (EDA); experiment: EDA activity assay with saturating amounts of E. coli EDD extract (LDH/NADH coupled); type: biochemical, Saccharomyces cerevisiae; details: for EDA activity (comparison in words): saturating E. coli EDD extract
Method: EDA genes isolated from a variety of sources were expressed in yeast and evaluated independently of EDA activity, to identify EDA activities suitable of inclusion in an engineered yeast strain. […] The activity of integrated EDAs in Thermosacc-Gold haploids, were also evaluated in this manner. The table below describes oligonucleotide primers used to isolate the various EDA genes.
EDA extracts were prepared using the following protocol. Day 1
Grow 5 ml LB-Kan preps of BF1055 (BL21/DE3 with pET26b empty vector) and BF1706 (BL21DE3 with pET26b+E. coli EDD).
Grow 50 ml LB-Kan prep of BF1055, 2% (v/v) inoculate.
Grow 50 ml prep of BF1706 using Novagen's Overnight Express (46.45 ml LB-Kan, 1 ml solution 1, 2.5 ml solution 2, 50 μl solution 3, 5 μl of 1M MnCl2, 50 μl of 0.5 M FeCl2), 2% (v/v) inoculate.
Inoculate to OD600 of 0.2.
EDD extractions (adapted from Chemyan et al, Protein Science 16:2368-2377, 2007): • 1) Pellet cells in 50 ml conical tubes, 4° C., 3,000 rpm, 10 mins, discard supernatant. • 2) Resuspend in 2 ml degassed PDGH buffer (20 mM MES pH 6.5, 30 mM NaCl, 5 mM • MnCl2, 0.5 mM FeCl2, 10 mM 2-mercaptoethanol, 10 mM cysteine, sparged with nitrogen gas). Move to hungate tube. • 3) Add 0.1% Triton X-100, 10 ng/ml DNase, 10 μg/ml PMSF, 10 μg/ml TAME (Nα-(p-toluene sulfonyl)-L-arginine methyl ester), 100 μg/ml lysozyme. • 4) Sparge hungate tube with nitrogen gas, cap and seal. Incubate 2 hours at 37° C., swirl occasionally. • 5) Clarify by centrifugation in 2-ml tube, 4° C., 10 mins, 14,000 rpm. Keep supernatant. • 6) Treat with 150 mM pyruvate and 10 mM sodium cyanoborohydride (work in hood) to inactivate aldolase activity. Incubate 30 mins at room temperature. • 7) During incubation, pre-equilibrate PD-10 column from GE • a. Remove top cap, pour off storage buffer. • b. Cut off bottom tip, fit in 50 ml conical with adapter. • c. Pour 5 ml of 20 mM MES buffer, pH 6.5 (total of 5 times). Discard flow-through. • 8) Run sample through column, then add MES buffer to a total of 2.5 ml volume added. Discard flow-through. • 9) Run 3.5 ml 20 mM MES pH 6.5 buffer to elute protein. Discard column in appropriate waste receptacle. • 10) Perform Bradford assay (1:10 or 1:20 dilution). EDA extractions: • 1) Spin down in 50 ml conicals, 4° C., 3,400 rpm, 5 mins. Wash 2× with 25 ml water. • 2) Resuspend in 1 ml lysis buffer (50 mM Tris-HCl, pH 7, 10 mM MgCl2, 1× protease inhibitor. […]
Each reaction contains 50 mM Tris-HCl, pH 7, 10 mM MgCl2, 0.15 mM NADH, 15 μg LDH, saturating amounts of EDD determined empirically (usually ˜100 μg), 1-50 μg EDA (depending on level of activity), and 1 mM 6-phosphogluconate. Reactions are started by the addition of 6-phosphogluconate and monitored for 5 mins at 30° C.

[4] = chimeric variants, soluble whole cell extract, xylose 40-500 mM

Bacteroides thetaiotaomicron: xylose isomerase of this donor organism
Active? (yes/no) (xylose isomerase [1]): Yes

Actinoplanes missouriensis: xylose isomerase of this donor organism
Active? (yes/no) (xylose isomerase [1]): No

Thermus thermophilus: xylose isomerase of this donor organism
Active? (yes/no) (xylose isomerase [1]): Yes

Piromyces: xylose isomerase from Piromyces strain E2 (SEQ ID NO: 35)
Active? (yes/no) (xylose isomerase [1]): Yes | Specific Activity (xylose isomerase [2]; G179A mutant kinetic assays, xylose 40-500 mM): 2.02 µmol/min/mg | Specific Activity (xylose isomerase [2]; [4]): 2.02 µmol/min/mg | Specific Activity (xylose isomerase [2]; soluble whole cell extract, xylose 40-500 mM, 30° C., pH 7.5): 2.02 µmol/min/mg

Streptomyces rubiginosus: xylose isomerase of this donor organism
Active? (yes/no) (xylose isomerase [1]): No

B1: Clostridium phytofermentans: xylose isomerase of this donor organism (protein)
chain: MKNYFPNVPEVKYEGPNSTNPFAFKYYDANKVVAGKTMKEHCRFALSWWHTLCAGGADPFGVTTMDRTYGNITDPMELAKAKVDAGFELMTKLGIEFFCFHDADIAPEGDTFEESKKNLFEIVDYIKEKMDQTGIKLLWGTANNFSHPRFMH
modifications: Clostridium phytofermentans
notes: xylose isomerase of this donor organism
Active? (yes/no) (xylose isomerase [1]): Yes

B2: E. coli EDA: 2-keto-3-deoxygluconate-6-phosphate aldolase of Escherichia coli expressed in yeast (protein, UniProt P0A955 1-213, looked up)
KHG/KDPG aldolase: MKNWKTSAESILTTGPVVPVIVVKKLEHAVPMAKALVAGGVRVLEVTLRTECAVDAIRAIAKEVPEAIVGAGTVLNPQQLAEVTEAGAQFAISPGLTEPLLKAATEGTIPLIPGISTVSELMLGMDYGLKEFKFFPAEANGGVKALQAIAGPFSQVRFCPTGGISPANYRDYLALKSVLCIGGSWLVPADALEAGDYDRITKLAREAVEGAKL
EDA activity, repeated experiment (FIG. 24) ([3]; 100 μg of EDD and 25 μg of EDA cell lysates (5 μg of E. coli EDA), linear range): most active of those EDA's tested | EDA activity (comparison in words) ([3]; first experiment): higher activity as compared to the other EDA activities evaluated herein | EDA activity relative to the EDA from P. aeruginosa ([3]; first experiment, E. coli EDA slope outside linear range, underestimated): approximately 16 fold

B3: R. flavefaciens, FD-1 XI: xylose isomerase of Ruminococcus flavefaciens FD1 (ZP_06143883.1, SEQ ID NO: 110) (protein, listed as Ruminococcus flavefaciens)
chain: MEFFKNISKIPYEGKDSTNPLAFKYYNPDEVIDGKKMRDIMKFALSWWHTMGGDGTDMFGCGTADKTWGENDPAARAKAKVDAAFEIMQKLSIDYFCFHDRDLSPEYGSLKDTNAQLDIVTDYIKAKQAETGLKCLWGTAKCFDHPRFMHGAGTSPSADVFAFSAAQIKKALESTVKLGGTGYVFWGGREGYETLLNTNMGLELDNMARLMKMAVEYGRSIGFKGDFYIEPKPKEPTKHQYDFDTATVLGFLRKYGLDKDFKMNIEANHATLAQHTFQHELCVARTNGAFGSIDANQGDPLLGWDTDQFPTNIYDTTMCMYEVIKAGGFTNGGLNFDAKARRGSFTPEDIFYSYIAGMDAFALGYKAASKLIADGRIDSFISDRYASWSEGIGLDIISGKADMAALEKYALEKGEVTDSISSGRQELLESIVNNVIFNL
xylose isomerase activity (slope) of candidate enzymes (FIG. 25) (xylose isomerase [2]; 100 μg total soluble crude extract, saturating xylose (500 mM)): highest activity of the candidates tested | specific activity relative to the native XI control activity (xylose isomerase [2]; Michaelis Mentin plots, xylose between 40 and 500 nM as printed): greater than 2 fold

B4: Escherichia coli: xylose isomerase of this donor organism (protein, UniProt P00944 1-440, looked up)
Xylose isomerase: MQAYFDQLDRVRYEGSKSSNPLAFRHYNPDELVLGKRMEEHLRFAACYWHTFCWNGADMFGVGAFNRPWQQPGEALALAKRKADVAFEFFHKLHVPFYCFHDVDVSPEGASLKEYINNFAQMVDVLAGKQEESGVKLLWGTANCFTNPRYGAGAATNPDPEVFSWAATQVVTAMEATHKLGGENYVLWGGREGYETLLNTDLRQEREQLGRFMQMVVEHKHKIGFQGTLLIEPKPQEPTKHQYDYDAATVYGFLKQFGLEKEIKLNIEANHATLAGHSFHHEIATAIALGLFGSVDANRGDAQLGWDTDQFPNSVEENALVMYEILKAGGFTTGGLNFDAKVRRQSTDKYDLFYGHIGAMDTMALALKIAARMIEDGELDKRIAQRYSGWNSELGQQILKGQMSLADLAKYAQEHHLSPVHQSGRQEQLENLVNHYLFDK
Active? (yes/no) (xylose isomerase [1]): No

B5: Codon-optimized EDA from P. aeruginosa: codon-optimized version of the P. aeruginosa EDA gene (protein, UniProt O68283 1-220, looked up)
2-dehydro-3-deoxy-phosphogluco …: MHNLEQKTARIDTLCREARILPVITIDREADILPMADALAAGGLTALEITLRTAHGLTAIRRLSEERPHLRIGAGTVLDPRTFAAAEKAGASFVVTPGCTDELLRFALDSEVPLLPGVASASEIMLAYRHGYRRFKLFPAEVSGGPAALKAFSGPFPDIRFCPTGGVSLNNLADYLAVPNVMCVGGTWMLPKAVVDRGDWAQVERLSREALERFAEHRRH
modifications: codon-optimized gene
EDA activity (comparison in words) ([3]; first experiment): slight improvement over the native sequence

B6: Bacillus subtilis: xylose isomerase of this donor organism (protein, UniProt P0CI80 1-445, looked up)
Xylose isomerase: MAQSHSSSINYFGSANKVVYEGKDSTNPLAFKYYNPQEVIGGKTLKEHLRFSIAYWHTFTADGTDVFGAATMQRPWDHYKGMDLAKMRVEAAFEMFEKLDAPFFAFHDRDIAPEGSTLKETNQNLDMIMGMIKDYMRNSGVKLLWNTANMFTNPRFVHGAATSCNADVFAYAAAQVKKGLETAKELGAENYVFWGGREGYETLLNTDLKFELDNLARFMHMAVDYAKEIGYTGQFLIEPKPKEPTTHQYDTDAATTIAFLKQYGLDNHFKLNLEANHATLAGHTFEHELRMARVHGLLGSVDANQGHPLLGWDTDEFPTDLYSTTLAMYEILQNGGLGSGGLNFDAKVRRSSFEPDDLIYAHIAGMDAFARGLKVAHKLIEDRVFEDVIQHRYRSFTEGIGLEIIEGRANFHTLEQYALNHKSIKNESGRQEKLKAILNQYILEV
Active? (yes/no) (xylose isomerase [1]): No

B7: XI-Rp5: chimera: first 5 amino acids of Piromyces xylose isomerase fused to Ruminococcus xylose isomerase (SEQ ID NO. 56) (protein)
chain: MAKEYFSNIGKIQYQGPKSTDPLSFKYYNPEEVINGKTMREHLKFALSWWHTMGGDGTDMFGCGTTDKTWGQSDPAARAKAKVDAAFEIMDKLSIDYYCFHDRDLSPEYGSLKATNDQLDIVTDYIKEKQGDKFKCLWGTAKCFDHPRFMHGAGTSPSADVFAFSAAQIKKALESTVKLGGNGYVFWGGREGYETLLNTNMGLELDNMARLMKMAVEYGRSIGFKGDFYIEPKPKEPTKHQYDFDTATVLGFLRKYGLDKDFKMNIEANHATLAQHTFQHELRVARDNGVFGSIDANQGDVLLGWDTDQFPTNIYDTTMCMYEVIKAGGFTNGGLNFDAKARRGSFTPEDIFYSYIAGMDAFALGFRAALKLIEDGRIDKFVADRYASWNTGIGADIIAGKADFASLEKYALEKGEVTASLSSGRQEMLESIVNNVLFSL
Km (xylose isomerase [2]; [4]): 66.5 mM | Specific Activity (xylose isomerase [2]; [4]): 1.45 µmol/min/mg
